Data on two molecules can be found in patent US20220144945A1 (Biogen, published 2022).

One may read the Kd as a measure of binding affinity in units of concentration.

The target of the assay is T1, LINGO-1 ectodomain (human, UniProt Q96FE5 42-561).
T1 construct: also called Sp35
T1 sequence: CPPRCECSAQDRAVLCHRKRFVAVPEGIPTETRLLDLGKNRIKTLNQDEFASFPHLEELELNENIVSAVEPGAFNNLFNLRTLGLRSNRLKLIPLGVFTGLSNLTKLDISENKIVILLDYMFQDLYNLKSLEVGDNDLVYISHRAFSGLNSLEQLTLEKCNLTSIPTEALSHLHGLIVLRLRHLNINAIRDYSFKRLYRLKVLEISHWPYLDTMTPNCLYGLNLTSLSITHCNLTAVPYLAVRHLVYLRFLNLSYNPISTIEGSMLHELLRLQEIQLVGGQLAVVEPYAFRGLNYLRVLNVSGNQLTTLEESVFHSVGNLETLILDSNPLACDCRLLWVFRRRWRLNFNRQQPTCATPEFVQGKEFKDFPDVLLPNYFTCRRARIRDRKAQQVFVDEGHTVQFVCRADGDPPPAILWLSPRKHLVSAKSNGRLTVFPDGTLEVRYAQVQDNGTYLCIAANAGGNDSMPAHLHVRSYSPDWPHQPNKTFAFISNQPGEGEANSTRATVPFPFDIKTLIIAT
Briefly: method not stated.

Some results are limits rather than exact numbers.

B1: Li81 (antibody, human IgG1, kappa, V domains shown)
VH: EVQLLESGGGLVQPGGSLRLSCAASGFTFSAYEMKWVRQAPGKGLEWVSVIGPSGGFTFYADSVKGRFTISRDNSKNTLYLQMNSLRAEDTAVYYCATEGDNDAFDIWGQGTTVTVSS
VL: DIQMTQSPATLSLSPGERATLSCRASQSVSSYLAWYQQKPGQAPRLLIYDASNRATGIPARFSGSGSGTDFTLTISSLEPEDFAVYYCQQRSNWPMYTFGQGTKLEIKR
notes: also called anti-LINGO-1 antibody; anti-Lingo-1
For B1, the Kd was at most 0.02 nM.

B2: Fab of Li81 (Fab, V domains shown)
VH: B1 VH
VL: DIQMTQSPATLSLSPGERATLSCRASQSVSSYLAWYQQKPGQAPRLLIYDASNRATGIPARFSGSGSGTDFTLTISSLEPEDFAVYYCQQRSNWPMYTFGQGTKLEIK
notes: also called Li81 Fab
Take B2: the Kd was at most 0.05 nM.
